Measured values taken from article PMC5737367.

Molecular target: Rif1 1709-1916 (UniProt P29539)
Experiment: GST pull-down from yeast lysate
Conditions: reference: wild type; sites S731

- binding against the reference: weaker
Substance: Rap1 (from UniProt P11938) S731A
